{"source": "patent US20060251726", "key": {"[1]": {"test_system": "T1, non-stearate Fus1 peptide", "T1 sequence": "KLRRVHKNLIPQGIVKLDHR"}, "[2]": {"test_system": "T2, stearate-Fus1 peptide (Stearic acid-KLRRVHKNLIPQGIVKLDHR)", "T2 sequence": "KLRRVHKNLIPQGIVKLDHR"}}, "data": [{"substance": "truncated commercial (New England Bio-Labs) cAbl tyrosine kinase (45 kD) containing only the SH2 and SH1 domains", "values": [{"measurement": "GST-Crk phosphorylation by the 45 kD Abl tyrosine kinase, 0-60 uM peptide", "setting": "[1]", "value": "Non-stearic acid modified Fus1 peptide did not inhibit Abl tyrosine kinase activity"}, {"measurement": "phosphorylation of Gst-Crk by commercial Abl", "setting": "[1]", "value": "Non-stearate FUS1 peptide did not inhibit phosphorylation of Gst-Crk by commercial Abl"}, {"measurement": "Abl tyrosine kinase assay using bacterially purified Abl kinase (GST-CRK phosphorylation)", "setting": "[2]", "value": "This peptide was strongly inhibitory in an Abl tyrosine kinase assay using bacterially purified Abl kinase"}, {"measurement": "c-Abl tyrosine phosphorylation of GST-CRK (32P, SDS-PAGE, phosphoimager; 10-55 µM peptide)", "setting": "[2]", "value": "the peptide inhibits c-Abl tyrosine phosphorylation of GST-CRK"}]}]}
